Measured values from paper PMC7221550, “Membrane Phospholipids and Polyphosphates as Cofactors and Binding Molecules of SERPINA12 (vaspin)” (Molecules, 2020).

Biological target: Recombinant human kallikrein 7 (KLK7) (human, UniProt P49862 30-253)
Assay: cell-based or functional assay

Sequence of Recombinant human kallikrein 7 (KLK7) (P49862 30-253): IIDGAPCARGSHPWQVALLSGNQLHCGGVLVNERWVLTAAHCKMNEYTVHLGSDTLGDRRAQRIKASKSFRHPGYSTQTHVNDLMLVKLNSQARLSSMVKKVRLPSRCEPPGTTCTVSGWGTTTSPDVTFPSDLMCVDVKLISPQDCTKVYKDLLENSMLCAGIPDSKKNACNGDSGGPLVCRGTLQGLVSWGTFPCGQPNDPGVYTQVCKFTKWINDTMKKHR

B1: Recombinant human vaspin wild type (visceral adipose tissue derived serine protease inhibitor, SERPINA12) (natural protein)
chain: KPSFSPRNYKALSEVQGWKQRMAAKELARQNMDLGFKLLKKLAFYNPGRNIFLSPLSISTAFSMLCLGAQDSTLDEIKQGFNFRKMPEKDLHEGFHYIIHELTQKTQDLKLSIGNTLFIDQRLQPQRKFLEDAKNFYSAETILTNFQNLEMAQKQINDFISQKTHGKINNLIENIDPGTVMLLANYIFFRARWKHEFDPNVTKEEDFFLEKNSSVKVPMMFRSGIYQVGYDDKLSCTILEIPYQKNITAIFILPDEGKLKHLEKGLQVDTFSRWKTLLSRRVVDVSVPRLHMTGTFDLKKTLSYIGVSKIFEEHGDLTKIAPHRSLKVGEAVHKAELKMDERGTEGAAGTGAQTLPMETPLVVKIDKPYLLLIYSEKIPSVLFLGKIVNPIGK
Question: With B1 as the binder, how does the “second-order rate constant of KLK7 inhibition by vaspin under pseudo-first-order conditions, x-fold over control, with polyP45 (polyP/serpin ratio of 10:1)” value read?
Answer: 5 fold

Question: And the “second-order rate constant of KLK7 inhibition by vaspin under pseudo-first-order conditions, x-fold over control, with unfractionated heparin (ligand/serpin ratio of 10)” value?
Answer: 5 fold
